Target: T1, SDF1α (Homo sapiens, UniProt P61073, F172Y/F264Y/F293Y/F304Y/F36Y/F49Y/F93Y/I162T/I169T/I173T/I243T/I257T/I286T/I300T/I39T/I53T/I89T/L165Q/L246Q/L253Q/L290Q/L297T/L301Q/L50Q/L86Q/V242T/V82T/V96T/V99T)
T1 construct: HUMAN CXCR4 QTY; made in house; host or cells: cell-free production
Experiment: Surface Plasmon Resonance analysis of CXCR4 QTY (Biacore, receptor captured on 1D4 Ab, SDF1α injected)
Format: binding
Settings: SPR, Biacore 2000, CM5 chip; SDF1α 0-1 μM; HBST with 0.2% BSA and 0.2% Fos-Choline-14
Description: Human CXCR4 and our CXCR4 QTY proteins obtained from cell-free production and purified with affinity beads were captured in different flow cells on a Biacore CM5 chip with immobilized 1D4 Antibody (Ab) in a Biacore 2000 instrument. Different concentrations of SDF1α, the native ligand for hCXCR4 receptor, were injected over the surface to allow interaction with the receptors.
Biacore CM5 chips were activated with 1-Ethyl-3-[3-dimethylaminopropyl]carbodiimide hydrochloride and N-hydroxysuccinimide according to the manufacturer's protocol prior to a 7 minute injection at 5 μl/min of 1D4 Ab to flow cells 2-4 at 70 μg/ml followed by deactivating of the surfaces in all the 4 flow cells with a short Ethanolamine pulse. The immobilization level of 1D4 Ab range from 8000-25000 Response units (RU).
CXCR4 and CXCR4 QTY mutant are captured by the 1D4 Ab on the CM5 chip by injecting a 0.1 mg/m1 sample of the protein to a single flow cell at 5 μl/min during 15 min with both sample and running buffer containing 0.2% Fos-Choline-14 detergent. The receptors were captured to a level of 800-3000 RU.
SDF1α were injected over all flow cells to allow interaction with both the receptors and flow cell one is used as a reference cell without any immobilized protein. […]

B1: CXCR4 QTY: Water-soluble human CXCR4 variant with 29 QTY mutations in the seven transmembrane helices (SEQ ID NO: 10) (protein)
chain: MEGISIYTSDNYTEEMGSGDYDSMKEPCFREENANYNKTFLPTIYSIIYQTGTVGNGLVILVMGYQKKLRSMTDKYRLHLSTADLQFVTTLPYWATDATANWYFGNFLCKAVHVIYTVNLYSSVLILAFISLDRYLAIVHATNSQRPRKLLAEKVVYVGVWTPAQLLTTPDYTFANVSEADDRYICDRFYPNDLWVVVFQFQHIMVGLILPGIVILSCYCIIISKLSHSKGHQKRKALKTTTTLIQAFFACWQPYYTGISIDSYILLEIIKQGCEFENTVHKWISTTEAQAFYHCCTNPTQYAYLGAKFKTSAQHALTSVSRGSSLKILSKGKRGGHSSVSTESESSSSFHS
**Q.** With B1 as the molecule, how does the “ligand binding (SDF1α)” value read?
**A.** shows ligand binding
